Test results as given in patent publication US20150337309.

Legend:
periostin (Homo sapiens) [1] = molecular target: T1, periostin (Homo sapiens) (UniProt Q15063); test: filter
T1 sequence: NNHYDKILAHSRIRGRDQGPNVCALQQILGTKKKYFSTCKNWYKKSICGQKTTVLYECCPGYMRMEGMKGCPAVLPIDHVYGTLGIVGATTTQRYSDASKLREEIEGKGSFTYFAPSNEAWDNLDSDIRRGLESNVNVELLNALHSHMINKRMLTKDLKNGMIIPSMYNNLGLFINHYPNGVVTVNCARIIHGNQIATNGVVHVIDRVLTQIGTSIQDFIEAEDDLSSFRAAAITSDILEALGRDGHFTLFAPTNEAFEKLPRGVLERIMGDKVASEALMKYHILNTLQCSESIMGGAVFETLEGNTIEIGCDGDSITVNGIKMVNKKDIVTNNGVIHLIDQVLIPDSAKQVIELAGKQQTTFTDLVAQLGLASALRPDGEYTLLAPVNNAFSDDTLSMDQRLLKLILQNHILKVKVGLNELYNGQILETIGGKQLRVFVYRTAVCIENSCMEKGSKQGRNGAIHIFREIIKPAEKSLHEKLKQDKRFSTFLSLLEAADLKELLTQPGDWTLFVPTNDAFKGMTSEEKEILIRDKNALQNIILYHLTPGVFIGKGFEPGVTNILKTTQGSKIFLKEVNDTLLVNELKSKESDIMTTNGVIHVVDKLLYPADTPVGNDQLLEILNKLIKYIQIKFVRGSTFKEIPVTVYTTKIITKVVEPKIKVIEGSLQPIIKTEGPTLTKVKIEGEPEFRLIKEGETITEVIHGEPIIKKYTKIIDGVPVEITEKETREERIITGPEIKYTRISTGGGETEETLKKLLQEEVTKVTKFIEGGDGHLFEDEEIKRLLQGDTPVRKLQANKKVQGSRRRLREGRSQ

periostin (Homo sapiens) [2] = molecular target: T1, periostin (Homo sapiens); test: cell_activity; conditions: BndU at all n [BndU at 6,7,9,14,16,21,22,26,28,31,34,35,44]; MDA-MB-231 adhesion to periostin-coated wells, 100 nM aptamer; control aptamer no effect

Sequence: ACGAGTCACACGTTGATGACTGGATGGTAGTTAAAGAGGGTGGGGCAACAA [PNDA-2]
- Kd (periostin (Homo sapiens) [1]; BndU at all n [BndU at 6,13,14,17,21,25,28,31,32,41], Bmax 78%): 7.41 nM

Sequence: ACGAGTCTGGTCCTTCCTCCCTAATTGCTGTTGAGGTATCGGCTACAACAA [PNDA-4]
- Kd (periostin (Homo sapiens) [1]; BndU at all n [BndU at 6,8,11,14,15,18,22,25,26,29,31,32,37,39,44], Bmax 90%): 1 nM

Sequence: ACGAGTCTGGTCCTTCCTTTGACGACTATTGTTTGGTATCGATCAACAACAA [PNDA-1]
- Kd (periostin (Homo sapiens) [1]; BndU at all n [BndU at 6,8,11,14,15,18,19,20,27,29,30,32,33,34,37,39,43], Bmax 92%): 2.85 nM

Sequence: ACGAGTTGTCGCATGTGCGGTTCAGTCTGGTCCTTCAGCACCGTACAACAA [PNDA-3]
- Kd (periostin (Homo sapiens) [1]; BndU at all n [BndU at 6,7,9,14,16,21,22,26,28,31,34,35,44], Bmax 95%): 1.07 nM
- activity (periostin (Homo sapiens) [2]): 60 % inhibition

Sequence: GATGTGAGTGTGTGACGAGTCACACGTTGATGACTGGATGGTAGTTAAAGAGGGTGGGGCAACAACAGAACAAGGAAAGG [clone 3 full length]
- Kd (periostin (Homo sapiens) [1]; BndU at all n of the core [BndU at 20,27,28,31,35,39,42,45,46,55], Bmax 72%, 200 mM HEPES, 510 mM NaCl, 25 mM KCl, 25 mM MgCl2, 37 C): 0.54 nM

Sequence: GATGTGAGTGTGTGACGAGTCTGGTCCTTCCTCCCTAATTGCTGTTGAGGTATCGGCTACAACAACAGAACAAGGAAAGG [clone 17 full length]
- Kd (periostin (Homo sapiens) [1]; BndU at all n of the core [BndU at 20,22,25,28,29,32,36,39,40,43,45,46,51,53,58], Bmax 78%, same buffer, 37 C): 0.63 nM

Sequence: GATGTGAGTGTGTGACGAGTCTGGTCCTTCCTGTATTAGATCATATCCTTAGGTATCGTCAACAACAGAACAAGGAAAGG [clone 1 full length]
- Kd (periostin (Homo sapiens) [1]; BndU at all n of the core [BndU at 20,22,25,28,29,32,34,36,37,41,44,46,49,50,54,56,59], Bmax 80%, same buffer, 37 C): 0.6 nM

Sequence: GATGTGAGTGTGTGACGAGTCTGGTCCTTCCTTTGACGACTATTGTTTGGTATCGGACAACAACAACAGAACAAGGAAAGG [clone 5 full length]
- Kd (periostin (Homo sapiens) [1]; BndU at all n of the core [BndU at 20,22,25,28,29,32,33,34,41,43,44,46,47,48,51,53], Bmax 80%, same buffer, 37 C): 1.41 nM

Sequence: GATGTGAGTGTGTGACGAGTTGTCGCATGTGCGGTTCAGTCTGGTCCTTCAGCACCGTACAACAACAGAACAAGGAAAGG [clone 8 full length]
- Kd (periostin (Homo sapiens) [1]; BndU at all n of the core [BndU at 20,21,23,28,30,35,36,40,42,45,48,49,58], Bmax 81%, same buffer, 37 C): 1.14 nM
